Tests used:
[1] = target: neuraminidase of A/Moscow/10/1999 (H3N2), recombinant head domain (Influenza A virus A/Moscow/10/1999 …, strain); test: BLI; settings: both partners purified
[2] = target: neuraminidase of A/Michigan/45/2015 (H1N1), recombinant head domain (Influenza A virus A/Michigan/45/2015 …, UniProt A0A0X9QTS2, strain); test: ELISA; settings: one partner purified
[3] = target: neuraminidase of A/Wyoming/3/2003 (H3N2), recombinant head domain (Influenza A virus A/Wyoming/3/2003 …, UniProt Q595Z6, strain); test: cell-based or functional assay

B1: HB420 with all SHMs reverted (Fab) (Fab, V domains shown)
VH: EVQLVQSGAEVKKPGSSVKVSCKASGGTFSSYAISWVRQAPGQGLEWMGGIIPIFGTANYAQKFQGRVTITADESTSTAYMELSSLRSEDTAVYYCARDSLPYGDQNYYYGMHVWGQGTTVTVSS
VL: QSALTQPASVSGSPGQSITISCTGTSSDVGGYNYVSWYQQHPGKAPKLMIYDVSNRPSGVSNRFSGSKSGNTASLTISGLQAEDEADYYCSSYTSNYNLVFGGGTKLTVL
- Kd [1]: 1.8 nM

B2: HB420 (human IgG1) (antibody, V domains shown)
VH: EVQLVESGAEVKKPGSSVKVSCMASGGSFGSYGFSWVRQAPGQGLEWMGGIIPLFDTPNYAQKFQGRVTITADASTSTVYMELSSLRSEDTAVYYCARDSLPYGDQNYYYGMHVWGQGTTVTVSS
VL: QSALTQPASLSGSPGQSITISCSGSSSDIGDYNYVSWYQQHPGKAPKLIIYDVTNRPSGVSDRLSGSKSGTTASLTISGLQAEDEADYYCSSYGGNYNLVFGGGTKLTVL
- binding result [2]: no binding
- NA inhibition of recombinant NA by enzyme-linked lectin assay (ELLA), IC50 [3]: 0.19 µg/mL

B3: HB420 with only heavy chain SHMs reverted (Fab) (Fab, V domains shown)
VH: B1 VH
VL: B2 VL
- Kd [1]: 1.1 nM

B4: HB420 with only light chain SHMs reverted (Fab) (Fab, V domains shown)
VH: B2 VH
VL: B1 VL
- Kd [1]: < 1 nM

B5: HB420 fragment antigen-binding (Fab) (Fab, V domains shown)
VH: B2 VH
VL: B2 VL
- Kd [1]: < 1 nM
